Patent US20130323187A1
* marks the point of attachment. Decanoyl = CCCCCCCCCC(=O)*; CH2Cl = ClC*

T1: D-6R
T1 sequence: XXXXXXXXXX

T2: Decanoyl-Arg-Val-Lys-Arg-CMK (FI-I, CALBIOCHEM)
T2 sequence: RVKR

T3: D-9Rac/am
T3 sequence: XXXXXXXXXXXXX


How the values were obtained:
D-6R = system: T1, D-6R
[1] = system: T2, Decanoyl-Arg-Val-Lys-Arg-CMK (FI-I, CALBIOCHEM)
D-9Rac/am = system: T3, D-9Rac/am
Recombinant furin = test: Ki for inhibition of furin, given as the comparison in the Boc-RVRR-MCA enzyme assay
Recombinant furin, sequence (P09958 108-715): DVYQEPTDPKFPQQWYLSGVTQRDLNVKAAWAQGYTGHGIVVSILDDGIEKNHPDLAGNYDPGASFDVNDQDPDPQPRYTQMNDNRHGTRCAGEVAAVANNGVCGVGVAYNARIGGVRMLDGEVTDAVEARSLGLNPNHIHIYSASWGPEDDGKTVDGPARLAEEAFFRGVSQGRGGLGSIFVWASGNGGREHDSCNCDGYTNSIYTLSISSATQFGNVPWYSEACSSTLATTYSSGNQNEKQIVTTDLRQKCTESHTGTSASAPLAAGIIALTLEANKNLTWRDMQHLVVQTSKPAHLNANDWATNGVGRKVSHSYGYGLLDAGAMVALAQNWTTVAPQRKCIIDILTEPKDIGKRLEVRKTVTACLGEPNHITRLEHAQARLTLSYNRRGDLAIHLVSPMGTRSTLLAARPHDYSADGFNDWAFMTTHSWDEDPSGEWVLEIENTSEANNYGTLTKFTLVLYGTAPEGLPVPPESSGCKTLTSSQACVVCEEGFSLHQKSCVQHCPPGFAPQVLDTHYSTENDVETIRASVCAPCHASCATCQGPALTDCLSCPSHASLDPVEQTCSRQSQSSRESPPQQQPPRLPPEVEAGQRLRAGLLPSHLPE

| Molecule | in vitro furin activity (cleavage of Boc-RVRR-MCA) (L-Bel1) | in vitro furin activity (cleavage of Boc-RVRR-MCA) (D-6R) | in vitro furin activity (cleavage of Boc-RVRR-MCA) [1] | in vitro furin activity (cleavage of Boc-RVRR-MCA) (D-9Rac/am) | Ki (Recombinant furin) [nM] |
| --- | --- | --- | --- | --- | --- |
| Recombinant furin | inhibited to completion in vitro furin activity | inhibited to completion in vitro furin activity | furin activity is inhibited by the specific furin inhibitor Decanoyl (d)-RVKR-chloromethylketone (CMK) | inhibited to completion in vitro furin activity |  |
| Decanoyl-RVKR-CH2Cl [Decanoyl-Arg-Val-Lys-Arg-CMK (FI-I, CALBIOCHEM)] |  |  |  |  | 1 |
